Measured values from patent US20210145828A1 (RUTGERS THE STATE UNIVERSITY OF NEW JERSEY, published 2021).

Biological target: T1, Gα12 (human, UniProt Q03113 1-381)
T1 sequence: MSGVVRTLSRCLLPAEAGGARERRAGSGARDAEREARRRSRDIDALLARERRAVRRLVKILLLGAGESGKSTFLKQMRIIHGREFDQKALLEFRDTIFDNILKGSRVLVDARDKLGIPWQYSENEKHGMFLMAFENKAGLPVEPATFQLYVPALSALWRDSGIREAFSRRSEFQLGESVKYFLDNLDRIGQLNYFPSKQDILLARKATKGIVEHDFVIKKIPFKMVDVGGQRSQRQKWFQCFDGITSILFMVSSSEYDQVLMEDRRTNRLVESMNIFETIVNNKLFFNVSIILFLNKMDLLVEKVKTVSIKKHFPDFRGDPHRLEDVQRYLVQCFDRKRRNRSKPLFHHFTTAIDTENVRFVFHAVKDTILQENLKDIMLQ
Experiment: cell-based or functional assay

SRE-luciferase reporter activity after carbachol stimulation (10 µM, 6 hours): 76
B1: M3-muscarinic acetylcholine receptor (M3R) (receptor)
chain: not shown
